{"source": "patent US20180072806A1", "about": "(SHIRE HUMAN GENETIC THERAPIES, published 2018)", "binders": {"B1": {"name": "anti-Flt-1 antibody 21B3 (antibody, V domains shown)", "VH": "ELQLVESGGGLVQPGGSLRLSCAASGFTFRDYSMSWVRQAPGKGLEWVSAISWNGDSTYYAESMKGRFTISRDNAKNTLYLQMNSLKSEDTAVYYCAKSWATPIESLYYYGMDYWGKGTLVTVSS", "VL": "SYELTQSPSVSVALRQTAKITCGGNNIGSQTAQWYQQKPGQAPVLVIYANNRRPSGIPERFSGSKSGNTATLTISGAQAEDEADYYCQVWDGSTQAIVFGGGTHLTVL", "notes": "VL is LC_21B3; IgG with wild-type Fc; also called 21B3 WT; clone 21B3"}, "B2": {"name": "anti-Flt-1 antibody 27H9 (antibody, human IgG1, lambda, V domains shown)", "VH": "B1 VH with L2V, V5L, M64A, A75S, K87R, S88A, M112S, K117Q", "VL": "SYELTQPLSVSVALRQTARITCGGNNIGSQTAQWYQQKPGQAPVLVIYANNRRPSGIPERFSGSKSGNTATLTISRAQAEDEADYYCQVWDESTQAIVFGGGTKLTVLG", "notes": "also called 27H9 WT; 27H9 WT 23/07"}, "B3": {"name": "anti-Flt-1 antibody 27H6 (antibody, human IgG1, lambda, V domains shown)", "VH": "B1 VH with R30S, M34A, N54S, M64V, S71F, A75S, K87R, S88A, M112S, K117Q", "VL": "B2 VL with T17A, R19K, E80G, E92G"}, "B4": {"name": "anti-Flt-1 antibody 27H4 (antibody, human IgG1, lambda, V domains shown)", "VH": "B1 VH with M64L, K87R, S88A, M112S, K117Q", "VL": "B2 VL with R15G, D91E, E92D"}}, "key": {"[1]": {"target": "T1, recombinant human soluble Flt-1 (human, UniProt P17948 27-758)", "T1 construct": "Recombinant soluble form (immunogen bought from ABCAM); also called human sFlt-1; sFlt-1", "T1 sequence (P17948 27-758 limits assumed)": "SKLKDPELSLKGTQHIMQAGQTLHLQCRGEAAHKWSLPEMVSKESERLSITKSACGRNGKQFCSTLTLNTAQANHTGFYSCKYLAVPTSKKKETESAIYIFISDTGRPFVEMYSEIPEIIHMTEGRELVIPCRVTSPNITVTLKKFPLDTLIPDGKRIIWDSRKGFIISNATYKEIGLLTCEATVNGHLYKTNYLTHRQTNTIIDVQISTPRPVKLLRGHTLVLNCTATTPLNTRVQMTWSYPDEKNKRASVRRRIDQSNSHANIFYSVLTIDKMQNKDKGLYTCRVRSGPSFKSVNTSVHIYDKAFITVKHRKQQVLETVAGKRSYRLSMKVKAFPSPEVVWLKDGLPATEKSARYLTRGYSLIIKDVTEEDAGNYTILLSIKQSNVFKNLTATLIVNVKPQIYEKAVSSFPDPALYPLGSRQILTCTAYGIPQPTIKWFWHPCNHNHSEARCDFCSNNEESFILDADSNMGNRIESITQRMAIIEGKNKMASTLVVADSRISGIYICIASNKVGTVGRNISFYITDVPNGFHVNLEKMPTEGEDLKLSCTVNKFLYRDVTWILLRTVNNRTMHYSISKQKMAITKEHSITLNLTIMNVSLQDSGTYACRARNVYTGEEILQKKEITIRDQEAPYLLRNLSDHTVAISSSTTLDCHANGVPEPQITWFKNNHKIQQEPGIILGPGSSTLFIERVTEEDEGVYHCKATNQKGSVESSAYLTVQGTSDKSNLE", "test": "human competition ELISA with human sFlt-1 and VEGF; blocked ligand VEGF; antibody titrated"}, "[2]": {"target": "T1, recombinant human soluble Flt-1", "test": "VEGF:sFlt1 binding assay (competition ELISA); blocked ligand VEGF; antibody titrated"}}, "note": "Numbering of substitutions follows the chain as printed."}
{"binder": "B1", "values": [{"measurement": "IC50 (read off the curve)", "setting": "[1]", "result": "~3", "unit": "ng/mL"}]}
{"binder": "B2", "values": [{"measurement": "IC50 (read off the curve)", "setting": "[2]", "result": "~10", "unit": "ng/mL"}]}
{"binder": "B3", "values": [{"measurement": "IC50 (read off the curve)", "setting": "[2]", "result": "~6", "unit": "ng/mL"}]}
{"binder": "B4", "values": [{"measurement": "IC50 (read off the curve)", "setting": "[2]", "result": "~10", "unit": "ng/mL"}]}
